Target: human integrin αvβ3 (R&D Systems, 3050-AV-050) (human, UniProt P06756 31-1048; P05106 27-718)
Test: SPR

Kd: 2110 nM
B1: GFP-tagged full-length recombinant human D3 (1-304 aa), D3^FL (enzyme)
chain: MPRQATSRLVVGEGEGSQGASGPAATMLRSLLLHSLRLCAQTASCLVLFPRFLGTAFMLWLLDFLCIRKHFLGRRRRGQPEPEVELNSEGEEVPPDDPPICVSDDNRLCTLASLKAVWHGQKLDFFKQAHEGGPAPNSEVVLPDGFQSQHILDYAQGNRPLVLNFGSCTCPPFMARMSAFQRLVTKYQRDVDFLIIYIEEAHPSDGWVTTDSPYIIPQHRSLEDRVSAARVLQQGAPGCALVLDTMANSSSSAYGAYFERLYVIQSGTIMYQGGRGPDGYQVSELRTWLERYDEQLHGARPRRV

From paper PMC8517284 (EBioMedicine, 2021)
